Assay: yeast display, Sf9 membrane polyspecificity reagent, FACS + sequencing; frameworks hold sequencing errors
How it was run: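 A nanobody's polyreactivity label depends on the gate it was sorted from. Yeast display cells were stained with 10% biotinylated, detergent-solubilized Sf9 membrane reagent for 1 hour at 4 °C, enriched on streptavidin microbeads and sorted by FACS. The low and high (top ~1%) gates were set on anti-HA fluorescence for expression and streptavidin fluorescence for reagent binding.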

| Sequence | polyreactivity (PSR sort gate) |
| --- | --- |
| QVQLVESGGGLVQAGGSLRLSCAASGRIFERNAMGWYRQAPGKERELVARITSGGGTYYADSVKGRFTISRDNAKNSVYLQMNSLKPEDTAVYYCAVQYLYRKYRRYDYWGQGTQVTVSS | high polyreactivity |
| QVQLVESGGGLVQAGGSLRLSCAASGRIFERYAMGWYRQEPGKERELVAGISISGGGTYYADSVKGRFTISRDNAKNTVYLQMNSLKPEDTAVYYCAGTFPREEYGYWGQGTQVTVSS | low polyreactivity |
| QVQLVESGGGLVQAGGSLRLSCAASGRIFERYPMGWYRQAPGKERELVAGISISGGGTYYADSVKGRFTISRDTAKNTVYLQRNSLKPEDTAVSYCAATFPREEYGYWGQGTLVTVSS | low polyreactivity |
| QVQLVESGGGLVQAGGSLRLSCAASGRIFESYAMGWYRQAPGKERELVAAISSGGGTTYYADSVKGRFTISRDNAKNTVYLQMNSLKPEDTAVYYCAADALSDEYDYWGQGTQVTVSS | low polyreactivity |
| QVQLVESGGGLVQAGGSLRLSCAASGRIFEVYAMGWYRQAPGKERELVAAIRSGGNTYYADSVKGRFTISRDNAKNTVYLQMISLKPEDTAVYYCAARYKPPFGGYTYYYWGQGTQVTVSS | high polyreactivity |
| QVQLVESGGGLVQAGGSLRLSCAASGRIFEVYAMGWYRQAPGKERELVAAITSSGGSRTYYADSVKGRFTISRDNAKNTVYLQMNSLKPEDTAVYYCAASTHRGRYKRYDYWGQGTQVTVSS | high polyreactivity |
| QVQLVESGGGLVQAGGSLRLSCAASGRIFFAYAMGWYRQAPGKERELVAAIRFSGGTTYYADSVKGRLTFSRDNAKNTVYLQMNSLKQEDTAVYYFAAGRRRSSSGYGYWGKGTQVTVSS | high polyreactivity |
| QVQLVESGGGLVQAGGSLRLSCAASGRIFFFYAMGWYRQAPGKERELVATITWTDGSTDYADSVKGRFTISRDNAKNTVYLQMNSLKPEDTAVYYCAKDEYVSRYDYWGQGTQVTVSS | low polyreactivity |
| QVQLVESGGGLVQAGGSLRLSCAASGRIFFIYAMGWYRPAPGKERELVAAISSSGGTTYYADSVKGRFTISRDNAKNTVYLQMNSLKPEDTAVYYCAARSAATHWTFLFYYDFDYWGQGSQVTVSS | low polyreactivity |
| QVQLVESGGGLVQAGGSLRLSCAASGRIFFKNAMGWYRQAPGKDRELVAAISWSGGRTYYADSVKGRFTISRDNAKNTVYLQMNSLKPEDSAVYYCATRYHVGKYLYGYWGQGTQVTVSS | high polyreactivity |
| QVQLVESGGGLVQAGGSLRLSCAASGRIFFKNAMGWYRQAPGKERELVAGISWSGGRTYYADSVKGRFTISRDNAKNTVYLQMNSLKPEDTAVYYCNAGSSFYRSLRYEYWGQGTQVTVSS | high polyreactivity |
| QVQLVESGGGLVQAGGSLRLSCAASGRIFFPYAMGWYRQAPGKEREFVAAITTGCGSTYYADSVKGRFTISRDNAKNTVYLQMNSLKPEDTAVYYCAKRTYSRKFRGAYNYWGQGTQVTVSS | high polyreactivity |
| QVQLVESGGGLVQAGGSLRLSCAASGRIFFPYDMGWYRQAPGKERELVAAITNSGGRTYYADSVKGRFTISRDNAKNTVYLQMNSLKPEDTAVYYCNADAYEFRWVKHYDYWGQGTQVTVSS | low polyreactivity |
| QVQLVESGGGLVQAGGSLRLSCAASGRIFFRYAMGWYRQAPGKERELVASIRFRGGSTYYADSVKGRFTISRDNAKNTVYLQLNSLKPVDTAVYYCATPGSFTGTQRTGDYWGQGTQVTVSS | high polyreactivity |
| QVQLVESGGGLVQAGGSLRLSCAASGRIFFSYAMGWYRQAPGKERELVAAINGRGGSTYYADSVKGRFTISRDNAKNTVYLQMNSLKPEDTAVYYCAATAFSKGSSWKPYYYWGQGTQVTVSS | low polyreactivity |
| QVQLVESGGGLVQAGGSLRLSCAASGRIFFVNAMGWYRQAPGKERELVAAISWSGGNTNYADSVKGRFTISRDNAKNTVYLQMNSLKPEDTAVYYCAADNSVGEYQRVDYDYWGQGTQVSVSS | low polyreactivity |

| Sequence | polyreactivity (PSR sort gate) |
| --- | --- |
| QVQLVESGGGLVQAGGSLRLSCAASGRIFFVNTMGWYRQAPVKERELVATISCSGGSTYYADSVKGRFTISRDNAKNTVYLQMNTLKPEDTAVYYCNRSLTGYDELGYPVPYTYDYWGQGTQVTVSS | low polyreactivity |
| QVQLVESGGGLVQAGGSLRLSCAASGRIFFWYAMGWYRQAPGTERELVAGITSGGSTNYADSVKGRFTISRDNAKNTVYLQMNSLKPEDTAVYYCAKRSYRTHTYDYWGQGTQVTVSS | low polyreactivity |
| QVQLVESGGGLVQAGGSLRLSCAASGRIFFYNAMGWYRQAPGKERELVAGISRSGTSTYYADSVKGRFTISRDNAKNTVYLQMNSLKPEDTAVYYCAADAWSVILWREMDYWGQGTQVTVSS | low polyreactivity |
| QVQLVESGGGLVQAGGSLRLSCAASGRIFFYYAMGWYRQAPGKERELVATISYSGGGTYYADSVKGRFTISRDNAKNTVYLQMNSLKPEDTAVYYCNARWGTPYYIQDFDYWGQGTQVTVSS | low polyreactivity |
| QVQLVESGGGLVQAGGSLRLSCAASGRIFFYYVMGWYRQAPGKERELVAAITRSGGSTYYADSVKGRFTISRDNAKNTVYLQMNSLKPEDTAVYYCSVGDGFEYDWGQGTQVTVSS | low polyreactivity |
| QVQLVESGGGLVQAGGSLRLSCAASGRIFGAYAMGWYRQAPGKERELVAAINRGGSTNYADSVKGRFTISRDNAKNTVYLQMNSLKPEDTAVYYCAKRSSGRHFTYDYWGQGTQVTVSS | low polyreactivity |
| QVQLVESGGGLVQAGGSLRLSCAASGRIFGAYAMGWYRQAPGKERELVAAITSGGSTYYADSVKGRFTISRDNAKNTVYLQMNSLKPEDTAVYYCNALRRSQPWKYDYWGQGTQVTVSS | low polyreactivity |
| QVQLVESGGGLVQAGGSLRLSCAASGRIFGAYAMGWYRQAPGKERELVAAITSRGGNTYYADSVKGRFTISRDNAKNTVFLQMNSLKPEDTAVYYCAARHDTRRQYYVGQSAFDYWGQGTQVTVSS | low polyreactivity |
| QVQLVESGGGLVQAGGSLRLSCAASGRIFGAYAMGWYRQARGKERELVAAIDIRGGNTYYADSVKGRFTISRDNAKNTVYLQMNSLKPEDTAVYYCPADTWYDAYNYWGQGTQVTVSS | low polyreactivity |
| QVQLVESGGGLVQAGGSLRLSCAASGRIFGDNAMGWYRQAPGKERELVAAITNRGGTTYYADSVKGRFTISRDNAKNTVYLQMNSLRPEDTAVYYCNKTPDRHRRYFGYGYWGQGTQVTVSS | low polyreactivity |
| QVQLVESGGGLVQAGGSLRLSCAASGRIFGDNAMGWYRQAPGKERELVAGIRWRADRTYYADSVKGRFTISRDNAKNTVYLQMNSLKPEDTAVYYCNADVVRYRHWHRGDYWGQGTQVTVSS | low polyreactivity |
| QVQLVESGGGLVQAGGSLRLSCAASGRIFGDYAMGWYRQAPGKERELVARITWSGTGTYYADSVKGRFTISRDNAKNTVYLQMNSLKPEDTAVYYCNADWQVQWYYYWGHGTQVTVSS | low polyreactivity |
| QVQLVESGGGLVQAGGSLRLSCAASGRIFGENAMGGYRQAPGKEREFVAVISISDASTYYADSVKGRFTISRDNAKNTVYLQMNSLKPEDTAVYYCAADLTDFLYVASDYWGQGTQVTVSS | low polyreactivity |
| QVQLVESGGGLVQAGGSLRLSCAASGRIFGENAMGWYRQAPGKERELVAAINSGGSTSYADSVKGRFTISRDNAKNTVYLQMNSLKPEDTAVYYCAADEIQGFYTHSFEYWGQGTQVTVSS | low polyreactivity |
| QVQLVESGGGLVQAGGSLRLSCAASGRIFGFNALGWYRQAPGKEREFVAAMSGNGGSTYYADSVKGRFTISRDTAKNTVYLPMLSLNPEDTADYYSAASVHATYFSGARHWVKLYDWRQGTQVTVSS | high polyreactivity |
